The results in this text go back to patent publication EP4631972A1, “SITE-SPECIFIC COUPLED PEGYLATED INTERLEUKIN-2 MUTANT WITH RECEPTOR AFFINITY PREFERENCE AND USE THEREOF” (priority 2022, dated 2024).

For data set [1] the following is noted: mouse, in vivo, sc, 1 mg/kg.
Description: Balb/c mice were purchased, with 4 mice in each group. Each IL-2 mutant to be tested was administered subcutaneously once at a dose of 1 mg/kg. Blood was collected from the orbit at different time points after administration, and the plasma was separated and the plasma drug concentration was detected by ELISA. The main pharmacokinetic parameters were calculated, and C-T curve was plotted.
Data set [2] concerns Treg cells. In words: Pharmacodynamic study in cynomolgus monkeys, peripheral Treg cells. Format: in vivo. As to conditions: doses ≤400 µg/kg. The text has this: For information on administration and grouping, see Table 14.
Data set [3] concerns Treg cells. In words: P-STAT5 activation in Treg cells of human PBMCs (flow cytometry). Format: cell-based. As to conditions: P-STAT5 MFI in CD3+/CD4+/CD25+ cells of human PBMCs, 30 min stimulation. The protocol:
In the example, the activation effect of each mutant prepared in Example 6 on P-STAT5 in different cell subsets (Tregs, CD8+T cells, NK cells) from human PBMCs (Miaoshun Biotechnology) was detected.
Human PBMC cells were thawed and resuspended to 1.5×10^6 cells/ml in RPMI1640 medium containing 10% FBS. 100 µl was added to each well of a V-bottom 96-well culture plate. Each IL-2 mutant prepared in Example 6 was diluted 10-fold in series: 1000 nM was used as the working concentration for the first well, and then 100 µl/well of each serial dilution was added to each cultured cell, stimulated at 37°C for 30 min, and the reaction was terminated on ice. The cells were treated with a commercial fixative and permeabilization agent (BD biosciences 558049 & 558050), and stained with antibodies against CD3, CD4, CD25, and CD8 according to conventional methods. P-STAT5 antibody staining was also performed (Table 7) to detect the mean fluorescence intensity (MFI) of P-STAT5 in CD3+/CD4+/CD25+ (Treg cells) and CD8+/CD3+ cells ([…]) by flow cytometry.

B1: 80K-1PEG-IL2-N88R-N77C: IL-2 mutant N88R, N77C, conjugation site 77, PEG molecular weight 80kD (conjugate)
chain: APTSSSTKKTQLQLEHLLLDLQMILNGINNYKNPKLTRMLTFKFYMPKKATELKHLQCLEEELKPLEEVLNLAQSKC(PEG 80 kDa)FHLRPRDLISRINVIVLELKGSETTFMCEYADETATIVEFLNRWITFSQSIISTLT
B1 yielded a T1/2 in data set [1] of 25.23 ± 3.45 h. For the same molecule, in the data set on Treg cells [2], the “activation and proliferation of peripheral blood Treg cells” value was “clear activation and proliferation”. The molecule also had an EC50 with Treg cells [3] of 29.8 nM.
